Binding signal (% loss of shifted WWWW band) and K half data for 2 substances are collected here from publication PMC2175313.

The test system of data set [1] is C.PvuII. Briefly: competition.
Data set [2] relates to C.PvuII. Briefly: EMSA.

For WWRR C-box 126-mer (OL intact), the binding signal (% loss of shifted WWWW band) with C.PvuII [1] stood at 95.

“WWWW C-box 126-mer (symmetrized, spacer TGTA)” showed a K half in the data set on C.PvuII [2] of 200 nM.
